Test results reported in patent publication US20250011456A1, “ANTIBODIES AGAINST CD14 AND USES THEREOF” (Villanelle Life Science Inc, priority 2023, published 2025).
Residue numbers refer to the chain shown, from its start. One block for each molecule: values may come before it.

Biological target: T1, recombinant human CD14 (B294801, histidine tagged) (Homo sapiens, UniProt P08571)
T1 construct: His; purchased Shanghai BaiYing Biotechnology Co., Ltd B294801 (Batch number 20200518A22)
T1 sequence (P08571 20-345): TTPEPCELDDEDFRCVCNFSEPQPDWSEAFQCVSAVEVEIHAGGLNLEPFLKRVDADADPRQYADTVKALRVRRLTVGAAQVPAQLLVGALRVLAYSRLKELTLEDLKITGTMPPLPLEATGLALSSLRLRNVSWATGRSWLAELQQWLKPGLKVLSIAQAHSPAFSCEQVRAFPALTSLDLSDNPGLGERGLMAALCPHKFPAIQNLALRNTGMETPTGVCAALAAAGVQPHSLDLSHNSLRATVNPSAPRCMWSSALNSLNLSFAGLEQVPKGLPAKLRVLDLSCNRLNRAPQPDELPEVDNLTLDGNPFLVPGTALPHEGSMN
Test: Biacore 8K kinetic and affinity test of humanized antibodies (Example 8)
Assay type: binding
Conditions: for Kd / koff (1:1 binding) / kon (1:1 binding): Biacore 8K, analyte B294801 0.78125-25 nM, capture 1 μg/mL; for Kd: KD=koff/kon; for affinity compared with the mouse antibody D6DD3D001: Biacore, B294801 antigen; for Change Factor (ratio of KD of the humanized to mouse antibody): relative to mouse antibody D6DD3D001
Protocol: Experimental reagents and consumables included Protein A chip (Cytiva, 29127556). Main instruments and equipment included Biacore 8K (Cytiva), shaker (Taicang Huamei), ELISA system (Molecular Devices), centrifuge (Baiyang), ultrapure water system (Millipore), and thermostatic incubator (BLUE PARD).
The antigen used for the binding affinity measurements is B294801. This antigen is a recombinant human CD14 antigen that is histidine tagged and has a molecular weight of 36 kDa. B294801 was purchased from Shanghai BaiYing Biotechnology Co., Ltd (name: Recombinant Human CD14/His Protein; Batch number 20200518A22). D6DD3D001 is a mouse antibody, and D6DD3D002-D6DD3D0016 are humanized antibodies. The antibodies are recombinant, human (hFc Tag). Selected parameters of the experimental samples are shown in Table 8-1, with MW referring to molecular weight in kiloDaltons (kDa).
The Biacore 8K platform was used to test the kinetic and affinity properties of the antibody. The operation was carried out according to the system instructions and indications.
The equilibrium dissociation constant (KD) reflects the affinity of the antibody to the target, with a smaller value indicating a stronger affinity. KD (in units of molarity) is determined by the ratio of the dissociation rate constant (koff) and the association rate constant (kon), that is, KD=Koff/kon.
15 humanized antibodies (numbered D6DD3D002-D6DD3D0016) and 1 mouse antibody (number D6DD3D001) were tested. For the experiments, the analyte solution comprises the B294801 antigen with an analyte concentration of 0.78125 nM, 1.5625 nM, 3.125 nM, 6.25 nM, 12.5 nM, and 25 nM. The capture concentration was 1 μg/mL. In Table 8-3, the change factor is the ratio of the equilibrium dissociation constant KD of the humanized to mouse antibody, and reflects the change in affinity after humanization.

B2: D6DD3D012: humanized anti-CD14 antibody; VH SEQ ID NO: 45, VL SEQ ID NO: 47 (antibody, V domains shown)
VH: QVQLQESGPGLVKPSQTLSLTCTVSGGSISSDSAWNWIRQHPGKGLEWIGYISYSGSTSYNPSLKSRVTISRDTSKNQFSLKLSSVTAADTAVYYCVRGLRFAYWGQGTLVTVSS
VL: DIQLTQSPSSLSASVGDRVTITCRASESVDSYVNSFLHWYQQKPGKAPKLLIYRASNLQSGVPSRFSGSGSRTDFTLTISSLQPEDVATYYCQQSNEDPYTFGQGTKLEIK
koff (1:1 binding): 0.00293 s⁻¹
kon (1:1 binding): 1.64e+06 M⁻¹ s⁻¹

B3: D6DD3D013: humanized anti-CD14 antibody; VH SEQ ID NO: 49, VL SEQ ID NO: 51 (antibody, V domains shown)
VH: B2 VH with Q16E, H41P
VL: B2 VL
Kd: 1.61 nM
koff (1:1 binding): 0.00282 s⁻¹
kon (1:1 binding): 1.76e+06 M⁻¹ s⁻¹
Change Factor (ratio of KD of the humanized to mouse antibody): 3.32

B4: D6DD3D002: humanized anti-CD14 antibody; VH SEQ ID NO: 5, VL SEQ ID NO: 7 (antibody, V domains shown)
VH: B2 VH
VL: EIVLTQSPATLSLSPGERATLSCRASESVDSYVNSFLHWYQQKPGQAPRLLIYRASNLQSGIPARFSGSGSRTDFTLTISSLEPEDVAVYYCQQSNEDPYTFGQGTKLEIK
koff (1:1 binding): 0.00292 s⁻¹
kon (1:1 binding): 1.69e+06 M⁻¹ s⁻¹

B5: D6DD3D016: humanized anti-CD14 antibody; VH SEQ ID NO: 61, VL SEQ ID NO: 63 (antibody, V domains shown)
VH: B2 VH with G27Y, S30T, H41P
VL: B2 VL
Kd: 0.672 nM
koff (1:1 binding): 0.000904 s⁻¹
kon (1:1 binding): 1.35e+06 M⁻¹ s⁻¹
Change Factor (ratio of KD of the humanized to mouse antibody): 1.39

B7: D6DD3D010: humanized anti-CD14 antibody; VH SEQ ID NO: 37, VL SEQ ID NO: 39 (antibody, V domains shown)
VH: B2 VH with Q16E, G27Y, S30T, H41P
VL: DIVLTQSPDSLAVSLGERATINCRASESVDSYVNSFLHWYQQKPGQPPKLLIYRASNLQSGVPDRFSGSGSRTDFTLTISSLQAEDVAVYYCQQSNEDPYTFGQGTKLEIK
Kd: 0.555 nM
koff (1:1 binding): 0.00105 s⁻¹
kon (1:1 binding): 1.9e+06 M⁻¹ s⁻¹
affinity compared with the mouse antibody D6DD3D001: approximately equivalent to the affinity of the antibody D6DD3D001 before humanization
Change Factor (ratio of KD of the humanized to mouse antibody): 1.14

B8: D6DD3D004: humanized anti-CD14 antibody; VH SEQ ID NO: 13, VL SEQ ID NO: 15 (antibody, V domains shown)
VH: B2 VH with V2L, Q16E, H41P
VL: B4 VL
Kd: 1.99 nM
koff (1:1 binding): 0.00326 s⁻¹
kon (1:1 binding): 1.64e+06 M⁻¹ s⁻¹
Change Factor (ratio of KD of the humanized to mouse antibody): 4.10

B10: D6DD3D011: humanized anti-CD14 antibody; VH SEQ ID NO: 41, VL SEQ ID NO: 43 (antibody, V domains shown)
VH: B2 VH with G27Y, S30T, H41P
VL: B7 VL
Kd: 0.639 nM
koff (1:1 binding): 0.00109 s⁻¹
kon (1:1 binding): 1.71e+06 M⁻¹ s⁻¹
Change Factor (ratio of KD of the humanized to mouse antibody): 1.32

B11: D6DD3D009: humanized anti-CD14 antibody; VH SEQ ID NO: 33, VL SEQ ID NO: 35 (antibody, V domains shown)
VH: B2 VH with V2L, Q16E, H41P
VL: B7 VL
Kd: 1.89 nM
koff (1:1 binding): 0.00379 s⁻¹
kon (1:1 binding): 2.01e+06 M⁻¹ s⁻¹
Change Factor (ratio of KD of the humanized to mouse antibody): 3.90

B12: D6DD3D008: humanized anti-CD14 antibody; VH SEQ ID NO: 29, VL SEQ ID NO: 31 (antibody, V domains shown)
VH: B2 VH with Q16E, H41P
VL: B7 VL
Kd: 1.57 nM
koff (1:1 binding): 0.00329 s⁻¹
kon (1:1 binding): 2.09e+06 M⁻¹ s⁻¹
Change Factor (ratio of KD of the humanized to mouse antibody): 3.24

B15: D6DD3D003: humanized anti-CD14 antibody; VH SEQ ID NO: 9, VL SEQ ID NO: 11 (antibody, V domains shown)
VH: B2 VH with Q16E, H41P
VL: B4 VL
Kd: 1.62 nM
koff (1:1 binding): 0.00295 s⁻¹
kon (1:1 binding): 1.82e+06 M⁻¹ s⁻¹
Change Factor (ratio of KD of the humanized to mouse antibody): 3.34

Continued, in another order:

Kd: 0.529 nM
koff (1:1 binding): 0.000798 s⁻¹
kon (1:1 binding): 1.51e+06 M⁻¹ s⁻¹
Change Factor (ratio of KD of the humanized to mouse antibody): 1.09
B1: D6DD3D005: humanized anti-CD14 antibody; VH SEQ ID NO: 17, VL SEQ ID NO: 19 (antibody, V domains shown)
VH: B2 VH with Q16E, G27Y, S30T, H41P
VL: B4 VL
affinity compared with the mouse antibody D6DD3D001: approximately equivalent to the affinity of the antibody D6DD3D001 before humanization

koff (1:1 binding): 0.00342 s⁻¹
kon (1:1 binding): 2.11e+06 M⁻¹ s⁻¹
B6: D6DD3D007: humanized anti-CD14 antibody; VH SEQ ID NO: 25, VL SEQ ID NO: 27 (antibody, V domains shown)
VH: B2 VH
VL: B7 VL

Kd: 1.8 nM
koff (1:1 binding): 0.00318 s⁻¹
kon (1:1 binding): 1.77e+06 M⁻¹ s⁻¹
Change Factor (ratio of KD of the humanized to mouse antibody): 3.71
B9: D6DD3D014: humanized anti-CD14 antibody; VH SEQ ID NO: 53, VL SEQ ID NO: 55 (antibody, V domains shown)
VH: B2 VH with V2L, Q16E, H41P
VL: B2 VL

Kd: 0.602 nM
koff (1:1 binding): 0.000862 s⁻¹
kon (1:1 binding): 1.43e+06 M⁻¹ s⁻¹
Change Factor (ratio of KD of the humanized to mouse antibody): 1.24
B13: D6DD3D006: humanized anti-CD14 antibody; VH SEQ ID NO: 21, VL SEQ ID NO: 23 (antibody, V domains shown)
VH: B2 VH with G27Y, S30T, H41P
VL: B4 VL

Kd: 0.532 nM
koff (1:1 binding): 0.000843 s⁻¹
kon (1:1 binding): 1.59e+06 M⁻¹ s⁻¹
Change Factor (ratio of KD of the humanized to mouse antibody): 1.10
B14: D6DD3D015: humanized anti-CD14 antibody; VH SEQ ID NO: 57, VL SEQ ID NO: 59 (antibody, V domains shown)
VH: B2 VH with Q16E, G27Y, S30T, H41P
VL: B2 VL
affinity compared with the mouse antibody D6DD3D001: approximately equivalent to the affinity of the antibody D6DD3D001 before humanization
